Assay results taken from the MegaScale stability set (Tsuboyama et al. 2023).

B1: HEEH_KT_rd6_3632 (parent)
chain: DAEELIELVERALKEGREIILLGVRITSEEAGKWFIEWIRRFL

Variants of: B1
Test: folding stability dG (cDNA display proteolysis); higher = more stable
Conditions: PBS, room temperature

Row | Variant | folding stability dG
1 | DAEELIELVERALKEGREIILLGVRITSEEAGKWTIEWIRRFL | 12.4 kJ/mol
2 | DAEELIELVERALKEGREIILLGVRITSEEAGKWGIEWIRRFL | 11 kJ/mol
3 | DAEELIELVERALKEGREIILLGVRITSEEAGKWWIEWIRRFL | 14.4 kJ/mol
4 | DAEELIELVERALKEGREIILLGVRITSEEAGKWFIEWIRRFS | 13.3 kJ/mol
5 | DAEELIELVERALKEGREIILLGVRITSEEAGKWFIEWIRRFP | 11 kJ/mol
6 | DAEELIELVERALKEGREIILLGVRITSEEAGKWFIEWIRRFA | 14 kJ/mol
7 | DAEELIELVERNLKEGREIILLGVRITSEEAGKWFIEWIRRFL | 13.1 kJ/mol
8 | DAEELIELVERHLKEGREIILLGVRITSEEAGKWFIEWIRRFL | 14 kJ/mol
9 | DAEELIELVERFLKEGREIILLGVRITSEEAGKWFIEWIRRFL | 14.3 kJ/mol
10 | DAEELIELVERALKEGREIILLGVRITSEEAGKWFLEWIRRFL | 14.7 kJ/mol
11 | DAEELIELVERALKEGREIILLGVRITSEEAGKWFVEWIRRFL | 14.1 kJ/mol
12 | DAEELIELVERALKEGREIILLGVRITSEEAGKWFWEWIRRFL | 15.7 kJ/mol
13 | DAEELIELVERALKEGREIILLGVRITSFEAGKWFIEWIRRFL | 16.2 kJ/mol
14 | DAEELIELVERALKEGREIILLGVRNTSEEAGKWFIEWIRRFL | 13.4 kJ/mol
15 | DAEELCELVERALKEGREIILLGVRITSEEAGKWFIEWIRRFL | 16.5 kJ/mol
16 | DAEELIELTERALKEGREIILLGVRITSEEAGKWFIEWIRRFL | 12.9 kJ/mol
17 | DAEELIELHERALKEGREIILLGVRITSEEAGKWFIEWIRRFL | 11.9 kJ/mol
18 | DAEELIELCERALKEGREIILLGVRITSEEAGKWFIEWIRRFL | 16.9 kJ/mol
19 | DAEELIELMERALKEGREIILLGVRITSEEAGKWFIEWIRRFL | 14.4 kJ/mol
20 | DAEELIELSERALKEGREIILLGVRITSEEAGKWFIEWIRRFL | 11.5 kJ/mol
21 | DAEELIELGERALKEGREIILLGVRITSEEAGKWFIEWIRRFL | 11.8 kJ/mol
22 | DAEELISLVERALKEGREIILLGVRITSEEAGKWFIEWIRRFL | 16.2 kJ/mol
23 | DAEELIKLVERALKEGREIILLGVRITSEEAGKWFIEWIRRFL | 17 kJ/mol
24 | DAEELIDLVERALKEGREIILLGVRITSEEAGKWFIEWIRRFL | 15.5 kJ/mol

Row | Variant | folding stability dG
25 | DAEELIWLVERALKEGREIILLGVRITSEEAGKWFIEWIRRFL | 16 kJ/mol
26 | DAEELITLVERALKEGREIILLGVRITSEEAGKWFIEWIRRFL | 16 kJ/mol
27 | DAEELIELVERALKEGREIILLGVRITSEEAGKWFIEWFRRFL | 14.5 kJ/mol
28 | DAEELIELVERALKEGREIILLGVRITSEEAGKWFIEWLRRFL | 16.8 kJ/mol
29 | DAEELIEYVERALKEGREIILLGVRITSEEAGKWFIEWIRRFL | 14.6 kJ/mol
30 | DAEELIERVERALKEGREIILLGVRITSEEAGKWFIEWIRRFL | 14.8 kJ/mol
31 | DAEELIEEVERALKEGREIILLGVRITSEEAGKWFIEWIRRFL | 13.8 kJ/mol
32 | DAEELIEMVERALKEGREIILLGVRITSEEAGKWFIEWIRRFL | 15.4 kJ/mol
33 | DAEPLIELVERALKEGREIILLGVRITSEEAGKWFIEWIRRFL | 15.2 kJ/mol
34 | DAEILIELVERALKEGREIILLGVRITSEEAGKWFIEWIRRFL | 17 kJ/mol
35 | DAEALIELVERALKEGREIILLGVRITSEEAGKWFIEWIRRFL | 16.6 kJ/mol
36 | DAEHLIELVERALKEGREIILLGVRITSEEAGKWFIEWIRRFL | 17.1 kJ/mol
37 | DAEELIELVERALKEGREWILLGVRITSEEAGKWFIEWIRRFL | 14.4 kJ/mol
38 | DAEELIELVERALKEGRESILLGVRITSEEAGKWFIEWIRRFL | 11.5 kJ/mol
39 | DAEELIELVERALKEGREPILLGVRITSEEAGKWFIEWIRRFL | 11.5 kJ/mol
40 | DAEELIELVERALKEGREKILLGVRITSEEAGKWFIEWIRRFL | 12.3 kJ/mol
41 | DAEELIELVERALKEGREVILLGVRITSEEAGKWFIEWIRRFL | 14.2 kJ/mol
42 | DAEELIELVERALKEGRETILLGVRITSEEAGKWFIEWIRRFL | 12.4 kJ/mol
43 | DAEELIELVERALKEGREIILLGVRITSEEKGKWFIEWIRRFL | 15.1 kJ/mol
44 | DAEELIELVERALYEGREIILLGVRITSEEAGKWFIEWIRRFL | 13.9 kJ/mol
45 | DAEELIELVERALTEGREIILLGVRITSEEAGKWFIEWIRRFL | 14.3 kJ/mol
46 | DAEELIELVERALKEGPEIILLGVRITSEEAGKWFIEWIRRFL | 14.1 kJ/mol
47 | DAEELIELVERALKEGYEIILLGVRITSEEAGKWFIEWIRRFL | 16.1 kJ/mol
48 | DAEELIELVERALKTGREIILLGVRITSEEAGKWFIEWIRRFL | 14.6 kJ/mol

Row | Variant | folding stability dG
49 | DAEELIELVLRALKEGREIILLGVRITSEEAGKWFIEWIRRFL | 17.4 kJ/mol
50 | DAEELIELVMRALKEGREIILLGVRITSEEAGKWFIEWIRRFL | 16.1 kJ/mol
51 | DAEELIELVERALKEGREIILLGQRITSEEAGKWFIEWIRRFL | 13.1 kJ/mol
52 | DAEELIELVERALKEGREIILLGWRITSEEAGKWFIEWIRRFL | 15.7 kJ/mol
53 | DAEELIELVERALKEGREIILLGPRITSEEAGKWFIEWIRRFL | 12.7 kJ/mol
54 | DAEELIELVERALKEGRPIILLGVRITSEEAGKWFIEWIRRFL | 15.2 kJ/mol
55 | DAEELIELVERALKEGREIILLGVRITSEEAGKWFIEWIWRFL | 16.1 kJ/mol
56 | DAEELIELVERALKEGREIILLGVRITSEEAGKWFIEWIVRFL | 14.6 kJ/mol
57 | DAEELIELVERALKEGREIILLGVRITSEEAGKWFIEWIIRFL | 15.8 kJ/mol
58 | DAEELIELVERALKEGREIILLGVRITNEEAGKWFIEWIRRFL | 15.8 kJ/mol
59 | DAEELIELVERALKEGREIILLGVRITREEAGKWFIEWIRRFL | 14.4 kJ/mol
60 | DAEELIELVERALKEGREIILLGVRITQEEAGKWFIEWIRRFL | 13.1 kJ/mol
61 | DAEELIELVERALKEFREIILLGVRITSEEAGKWFIEWIRRFL | 16.6 kJ/mol
62 | DAEELIELVERALKEYREIILLGVRITSEEAGKWFIEWIRRFL | 15.4 kJ/mol
63 | DLEELIELVERALKEGREIILLGVRITSEEAGKWFIEWIRRFL | 18 kJ/mol
64 | DEEELIELVERALKEGREIILLGVRITSEEAGKWFIEWIRRFL | 14.4 kJ/mol
65 | DKEELIELVERALKEGREIILLGVRITSEEAGKWFIEWIRRFL | 14.6 kJ/mol
66 | DYEELIELVERALKEGREIILLGVRITSEEAGKWFIEWIRRFL | 17.6 kJ/mol
67 | DREELIELVERALKEGREIILLGVRITSEEAGKWFIEWIRRFL | 14.8 kJ/mol
68 | DAEELIELVERALKEGREIIVLGVRITSEEAGKWFIEWIRRFL | 16.3 kJ/mol
69 | DAEELIELVEAALKEGREIILLGVRITSEEAGKWFIEWIRRFL | 14.7 kJ/mol
70 | DAEELIELVEDALKEGREIILLGVRITSEEAGKWFIEWIRRFL | 13.7 kJ/mol
71 | DAEELIELVETALKEGREIILLGVRITSEEAGKWFIEWIRRFL | 15.2 kJ/mol
72 | DAEELIELVERALKEGREIILLGVRIISEEAGKWFIEWIRRFL | 16.3 kJ/mol

Row | Variant | folding stability dG
73 | DAEELIELVERALKEGREIILLGVRIFSEEAGKWFIEWIRRFL | 16.9 kJ/mol
74 | DAEELIELVERALKEGREIALLGVRITSEEAGKWFIEWIRRFL | 12.3 kJ/mol
75 | DALELIELVERALKEGREIILLGVRITSEEAGKWFIEWIRRFL | 16.6 kJ/mol
76 | DARELIELVERALKEGREIILLGVRITSEEAGKWFIEWIRRFL | 17.4 kJ/mol
77 | DAIELIELVERALKEGREIILLGVRITSEEAGKWFIEWIRRFL | 16.1 kJ/mol
78 | DAEELIELVERALKEGREIILLGVRITSEEAGKWFIEWIRRDL | 10.5 kJ/mol
79 | DAEELIELVERALKEGREIILLGVRITSEEAGKWFIEWIRRML | 15.7 kJ/mol
80 | DAEELIELVERALKEGREIILLGVRITSEEAGKWFITWIRRFL | 14.5 kJ/mol
81 | DAEELIELVERALKEGREIILLGVRITSEEAGKWFIFWIRRFL | 15.5 kJ/mol
82 | DAEELIELVERALKEGREIILLGVRITSEEAGKWFIGWIRRFL | 14.3 kJ/mol
83 | DAEELIELVERALKEGREIILLGVRITSEEAGKWFIDWIRRFL | 14.9 kJ/mol
84 | DAEELIELVERALKEGREIILLPVRITSEEAGKWFIEWIRRFL | 13.7 kJ/mol
85 | DAEELIELVERALKEGREIILLDVRITSEEAGKWFIEWIRRFL | 14.1 kJ/mol
86 | DAEELIELVERALKEGREIILLTVRITSEEAGKWFIEWIRRFL | 15.2 kJ/mol
87 | DAEELIELVERALKEGREIILLAVRITSEEAGKWFIEWIRRFL | 15.4 kJ/mol
88 | DAEELIELVERALKEGREIILFGVRITSEEAGKWFIEWIRRFL | 15.2 kJ/mol
89 | DAEELIELVERALKEGREIILDGVRITSEEAGKWFIEWIRRFL | 11.1 kJ/mol
90 | DAEELIELVERALKEGREIILSGVRITSEEAGKWFIEWIRRFL | 13 kJ/mol
91 | DAEERIELVERALKEGREIILLGVRITSEEAGKWFIEWIRRFL | 11.7 kJ/mol
92 | DAEEEIELVERALKEGREIILLGVRITSEEAGKWFIEWIRRFL | 11.6 kJ/mol
93 | DAEEGIELVERALKEGREIILLGVRITSEEAGKWFIEWIRRFL | 12.1 kJ/mol
94 | DAEEQIELVERALKEGREIILLGVRITSEEAGKWFIEWIRRFL | 11.8 kJ/mol
95 | DAEECIELVERALKEGREIILLGVRITSEEAGKWFIEWIRRFL | 15.7 kJ/mol
96 | DAEEIIELVERALKEGREIILLGVRITSEEAGKWFIEWIRRFL | 14.4 kJ/mol

Row | Variant | folding stability dG
97 | DAEELIELVERALKEGREIILLGVRITSEEAEKWFIEWIRRFL | 13.5 kJ/mol
98 | DAEELIELVERALKEGREIILLGVRITSEEAHKWFIEWIRRFL | 14.4 kJ/mol
99 | DAEELIELVERALKEGREIILLGVRITSEEAAKWFIEWIRRFL | 16.9 kJ/mol
100 | DAEELIELVERALKEGREIILLGVRITSEEAYKWFIEWIRRFL | 16.1 kJ/mol
101 | DAEELIELVERALKEGREIILLGVRITSEEAGKWFIEWIRMFL | 16.5 kJ/mol
102 | DAEELIELVERALKEGREIILLGVRITSEEAGKWFIEWIRVFL | 15.5 kJ/mol
103 | DAEELIELVERALKEGREIILLGVRITSEEAGKLFIEWIRRFL | 15.6 kJ/mol
104 | DAEELIELVERALKEGREIILLGVRITSEEAGKFFIEWIRRFL | 14.3 kJ/mol
105 | DAEELIELVERALKEGREIILLGVRITSEEAGKCFIEWIRRFL | 15.8 kJ/mol
106 | DAEELIELVERAFKEGREIILLGVRITSEEAGKWFIEWIRRFL | 14.3 kJ/mol
107 | DAEELIELVERAQKEGREIILLGVRITSEEAGKWFIEWIRRFL | 12.3 kJ/mol
108 | DAEELIELVERASKEGREIILLGVRITSEEAGKWFIEWIRRFL | 12.9 kJ/mol
109 | HAEELIELVERALKEGREIILLGVRITSEEAGKWFIEWIRRFL | 16.9 kJ/mol
110 | SAEELIELVERALKEGREIILLGVRITSEEAGKWFIEWIRRFL | 16.6 kJ/mol
111 | EAEELIELVERALKEGREIILLGVRITSEEAGKWFIEWIRRFL | 15.2 kJ/mol
112 | QAEELIELVERALKEGREIILLGVRITSEEAGKWFIEWIRRFL | 16.5 kJ/mol
113 | DAEELIELVERALKEGREIILLGVEITSEEAGKWFIEWIRRFL | 13.7 kJ/mol
114 | DAEELIELVERALKEGREIILLGVTITSEEAGKWFIEWIRRFL | 14.9 kJ/mol
115 | DAEELIELVERALKEGREIILLGVVITSEEAGKWFIEWIRRFL | 15.2 kJ/mol
116 | DAEELIELVERALKEGREIILLGVGITSEEAGKWFIEWIRRFL | 13.9 kJ/mol
117 | DAEELIELVERALKEGREIILLGVRITSEEAGQWFIEWIRRFL | 15.2 kJ/mol
118 | DAEELIELVERALKEGREIILLGVRITSEEAGCWFIEWIRRFL | 16.7 kJ/mol
